Patent US20260049138A1 (Chugai, published 2026)
Substitutions are numbered along the chain they refer to. In names and notes the source's numbering stands.

B1: GLS3000 S27eY one-arm antibody (antibody, human IgG1, kappa, L234A L235A, N297A, name in Kabat numbering)
heavy: QVQLVESGGGVVQPGRSLRLSCAASGFTFSNAWMHWVRQAPGKGLEWVAQIKAKSNNYATYYAESVKGRFTISRDDSKNSLYLQMNSLKTEDTAVYYCRYVHYGAYYGVDAWGQGTTVTVSSASTKGPSVFPLAPSSKSTSGGTAALGCLVKDYFPEPVTVSWNSGALTSGVHTFPAVLQSSGLYSLSSVVTVPSSSLGTQTYICNVNHKPSNTKVDKKVEPKSCDKTHTCPPCPAPEAAGGPSVFLFPPKPKDTLMISRTPEVTCVVVDVSHEDPEVKFNWYVDGVEVHNAKTKPREEQYASTYRVVSVLTVLHQDWLNGKEYKCKVSNKALPAPIEKTISKAKGQPREPQVYTLPPSRCELTKNQVSLSCAVKGFYPSDIAVEWESNGQPENNYKTTPPVLDSDGSFFLVSKLTVDKSRWQQGNVFSCSVMHEALHNHYTQKSLSLSPDYKDDDDK
chain: EPKSSDKTHTCPPCPAPELLGGPSVFLFPPKPKDTLMISRTPEVTCVVVDVSHEDPEVKFNWYVDGVEVHNAKTKPREEQYNSTYRVVSVLTVLHQDWLNGKEYKCKVSNKALPAPIEKTISKAKGQPREPQVCTLPPSRDELTKNQVSLWCLVKGFYPSDIAVEWESNGQPENNYKTTPPVLDSDGSFFLYSKLTVDKSRWQQGNVFSCSVMHEALHNRYTQKSLSLSP
light: DIVMTQSPLSLPVTPGEPASISCRSSQSLVHYNRNTYLHWYQQKPGQAPRLLIYKVSNRFSGVPDRFSGSGSGTDFTLKISRVEAEDVGVYYCGQGTQVPYTFGQGTKLEIKRTVAAPSVFIFPPSDEQLKSGTASVVCLLNNFYPREAKVQWKVDNALQSGNSQESVTEQDSKDSTYSLSSTLTLSKADYEKHKVYACEVTHQGLSSPVTKSFNRGEC
B2: GLS3000 T31D one-arm antibody (antibody, human IgG1, kappa, L234A L235A, N297A, name in Kabat numbering)
heavy: B1 heavy
chain: B1 chain
light: B1 light with Y32S, T36D
B3: GLS3000 S56A one-arm antibody (antibody, human IgG1, kappa, L234A L235A, N297A, name in Kabat numbering)
heavy: B1 heavy
chain: B1 chain
light: B1 light with Y32S, S61A
B4: GLS3000 S56L one-arm antibody (antibody, human IgG1, kappa, L234A L235A, N297A, name in Kabat numbering)
heavy: B1 heavy
chain: B1 chain
light: B1 light with Y32S, S61L
B5: GLS3000 T31K one-arm antibody (antibody, human IgG1, kappa, L234A L235A, N297A, name in Kabat numbering)
heavy: B1 heavy
chain: B1 chain
light: B1 light with Y32S, T36K
B6: GLS3000 S56W one-arm antibody (antibody, human IgG1, kappa, L234A L235A, N297A, name in Kabat numbering)
heavy: B1 heavy
chain: B1 chain
light: B1 light with Y32S, S61W
B7: GLS3000 T31E one-arm antibody (antibody, human IgG1, kappa, L234A L235A, N297A, name in Kabat numbering)
heavy: B1 heavy
chain: B1 chain
light: B1 light with Y32S, T36E
B8: GLS3000 S56Q one-arm antibody (antibody, human IgG1, kappa, L234A L235A, N297A, name in Kabat numbering)
heavy: B1 heavy
chain: B1 chain
light: B1 light with Y32S, S61Q
B9: GLS3000 S56D one-arm antibody (antibody, human IgG1, kappa, L234A L235A, N297A, name in Kabat numbering)
heavy: B1 heavy
chain: B1 chain
light: B1 light with Y32S, S61D
B10: GLS3000 S56E one-arm antibody (antibody, human IgG1, kappa, L234A L235A, N297A, name in Kabat numbering)
heavy: B1 heavy
chain: B1 chain
light: B1 light with Y32S, S61E
B11: GLS3000 T92A one-arm antibody (antibody, human IgG1, kappa, L234A L235A, N297A, name in Kabat numbering)
heavy: B1 heavy
chain: B1 chain
light: B1 light with Y32S, T97A
B12: GLS3000 S56F one-arm antibody (antibody, human IgG1, kappa, L234A L235A, N297A, name in Kabat numbering)
heavy: B1 heavy
chain: B1 chain
light: B1 light with Y32S, S61F
B13: GLS3000 S52Y one-arm antibody (antibody, human IgG1, kappa, L234A L235A, N297A, name in Kabat numbering)
heavy: B1 heavy
chain: B1 chain
light: B1 light with Y32S, S57Y
B14: GLS3000 S56H one-arm antibody (antibody, human IgG1, kappa, L234A L235A, N297A, name in Kabat numbering)
heavy: B1 heavy
chain: B1 chain
light: B1 light with Y32S, S61H
B15: GLS3000 S56P one-arm antibody (antibody, human IgG1, kappa, L234A L235A, N297A, name in Kabat numbering)
heavy: B1 heavy
chain: B1 chain
light: B1 light with Y32S, S61P
B16: GLS3000 S56Y one-arm antibody (antibody, human IgG1, kappa, L234A L235A, N297A, name in Kabat numbering)
heavy: B1 heavy
chain: B1 chain
light: B1 light with Y32S, S61Y
B17: GLS3000 S56V one-arm antibody (antibody, human IgG1, kappa, L234A L235A, N297A, name in Kabat numbering)
heavy: B1 heavy
chain: B1 chain
light: B1 light with Y32S, S61V
B18: GLS3000 S56K one-arm antibody (antibody, human IgG1, kappa, L234A L235A, N297A, name in Kabat numbering)
heavy: B1 heavy
chain: B1 chain
light: B1 light with Y32S, S61K
B19: GLS3000 T31N one-arm antibody (antibody, human IgG1, kappa, L234A L235A, N297A, name in Kabat numbering)
heavy: B1 heavy
chain: B1 chain
light: B1 light with Y32S, T36N
B20: GLS3000 S56N one-arm antibody (antibody, human IgG1, kappa, L234A L235A, N297A, name in Kabat numbering)
heavy: B1 heavy
chain: B1 chain
light: B1 light with Y32S, S61N
B21: GLS3000 S56T one-arm antibody (antibody, human IgG1, kappa, L234A L235A, N297A, name in Kabat numbering)
heavy: B1 heavy
chain: B1 chain
light: B1 light with Y32S, S61T
B22: GLS3000 S56G one-arm antibody (antibody, human IgG1, kappa, L234A L235A, N297A, name in Kabat numbering)
heavy: B1 heavy
chain: B1 chain
light: B1 light with Y32S, S61G
B23: GLS3000 T92I one-arm antibody (antibody, human IgG1, kappa, L234A L235A, N297A, name in Kabat numbering)
heavy: B1 heavy
chain: B1 chain
light: B1 light with Y32S, T97I
B24: GLS3000 S56M one-arm antibody (antibody, human IgG1, kappa, L234A L235A, N297A, name in Kabat numbering)
heavy: B1 heavy
chain: B1 chain
light: B1 light with Y32S, S61M
B25: GLS3000 T31I one-arm antibody (antibody, human IgG1, kappa, L234A L235A, N297A, name in Kabat numbering)
heavy: B1 heavy
chain: B1 chain
light: B1 light with Y32S, T36I
B26: GLS3000 S52P one-arm antibody (antibody, human IgG1, kappa, L234A L235A, N297A, name in Kabat numbering)
heavy: B1 heavy
chain: B1 chain
light: B1 light with Y32S, S57P
B27: GLS3000 T92D one-arm antibody (antibody, human IgG1, kappa, L234A L235A, N297A, name in Kabat numbering)
heavy: B1 heavy
chain: B1 chain
light: B1 light with Y32S, T97D
B28: GLS3000 S52Q one-arm antibody (antibody, human IgG1, kappa, L234A L235A, N297A, name in Kabat numbering)
heavy: B1 heavy
chain: B1 chain
light: B1 light with Y32S, S57Q
B29: GLS3000 S56R one-arm antibody (antibody, human IgG1, kappa, L234A L235A, N297A, name in Kabat numbering)
heavy: B1 heavy
chain: B1 chain
light: B1 light with Y32S, S61R
B30: GLS3000 T31P one-arm antibody (antibody, human IgG1, kappa, L234A L235A, N297A, name in Kabat numbering)
heavy: B1 heavy
chain: B1 chain
light: B1 light with Y32S, T36P
B31: GLS3000 S52A one-arm antibody (antibody, human IgG1, kappa, L234A L235A, N297A, name in Kabat numbering)
heavy: B1 heavy
chain: B1 chain
light: B1 light with Y32S, S57A
B32: GLS3000 S56I one-arm antibody (antibody, human IgG1, kappa, L234A L235A, N297A, name in Kabat numbering)
heavy: B1 heavy
chain: B1 chain
light: B1 light with Y32S, S61I
B33: GLS3000 T92E one-arm antibody (antibody, human IgG1, kappa, L234A L235A, N297A, name in Kabat numbering)
heavy: B1 heavy
chain: B1 chain
light: B1 light with Y32S, T97E
B34: GLS3000 S52D one-arm antibody (antibody, human IgG1, kappa, L234A L235A, N297A, name in Kabat numbering)
heavy: B1 heavy
chain: B1 chain
light: B1 light with Y32S, S57D

Target: T1, CD3ε homodimer protein (human, UniProt P07766 23-126, limits assumed)
T1 construct: also called CD3 (CD3ε)
Assay: SPR Biacore T200, CD3ε homodimer on chip;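 also: Light-chain single-residue variant antibodies injected over amine-coupled CD3ε homodimer on a CM4 chip at 25 °C, bound amount divided by that of the GLS3000-containing antibody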

T1 sequence (P07766 23-126 limits assumed): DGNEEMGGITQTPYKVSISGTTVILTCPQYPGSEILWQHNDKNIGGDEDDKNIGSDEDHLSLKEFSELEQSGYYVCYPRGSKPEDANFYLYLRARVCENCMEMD

Row | ratio of amount bound vs unaltered GLS3000 | Binder
1 | 1.2 | B1
2 | 0.23 | B2
3 | 1.16 | B3
4 | 1.02 | B4
5 | 1.04 | B5
6 | 1.38 | B6
7 | 0.49 | B7
8 | 1.04 | B8
9 | 0.77 | B9
10 | 0.71 | B10
11 | 0.63 | B11
12 | 1.32 | B12
13 | 1.12 | B13
14 | 1.05 | B14
15 | 0.95 | B15
16 | 1.46 | B16
17 | 0.95 | B17

Row | ratio of amount bound vs unaltered GLS3000 | Binder
18 | 1.46 | B18
19 | 0.32 | B19
20 | 0.92 | B20
21 | 0.97 | B21
22 | 0.92 | B22
23 | 0.34 | B23
24 | 1.05 | B24
25 | 0.97 | B25
26 | 0.33 | B26
27 | 0.18 | B27
28 | 1.05 | B28
29 | 1.36 | B29
30 | 0.31 | B30
31 | 0.93 | B31
32 | 0.99 | B32
33 | 0.17 | B33
34 | 0.63 | B34
